Results: PMC5130018 (2016)

B1: WH-biotin (peptide WH with GGGK-biotin at the carboxyl terminal) [modified: biotin on the C-terminal lysine (GGGK-biotin); biotin on the C-terminal lysine (GGGK-biotin)] / mouse Clec9a expressed on HEK-293T cells (pIRES2-EGFP-mClec9a) … (parent complex)
chain 1: WPRFHSSVFHTHGGGK
chain 2: MHAEEIYTSLQWDIPTSEASQKCQSPSKCSGAWCVVTMISCVVCMGLLATSIFLGIKFFQVSSLVLEQQERLIQQDTALVNLTQWQRKYTLEYCQALLQRSLHSGTDASTGPVLLTSPQMVPQTLDSKETGSDCSPCPHNWIQNGKSCYYVFERWEMWNISKKSCLKEGASLFQIDSKEEMEFISSIGKLKGGNKYWVGVFQDGISGSWFWEDGSSPLSDLLPAERQRSAGQICGYLKDSTLISDKCDSWKYFICEKKAFGSCI

Variants of: B1
Experiment: flow cytometry on cells; parent: 49.6

response | Variant
7.85 % of cells in upper-right quadrant (SA+ EGFP+) | chain 2 W250A
74.2 % of cells in upper-right quadrant (SA+ EGFP+) | chain 2 M157A

Further lines, the variant ahead of its results:

Variant | response
chain 2 Y252A | 45.4 % of cells in upper-right quadrant (SA+ EGFP+)
chain 2 D248A | 11.3 % of cells in upper-right quadrant (SA+ EGFP+)
chain 2 W155A | 52.5 % of cells in upper-right quadrant (SA+ EGFP+)
chain 2 I160A | 50.6 % of cells in upper-right quadrant (SA+ EGFP+)
chain 2 R154A | 69.6 % of cells in upper-right quadrant (SA+ EGFP+)
